pEC50: −log10 of the molar value.
How the values were obtained:
[1] = biological target: T1, trypsin (Bos taurus, UniProt P00760); assay: Inhibitory activity against trypsin; assay type: biochemical; settings: trypsin and fusion 10 nM each, 1 hr room temperature
T1 construct: gene PRSS1
T1 sequence (P00760 24-246): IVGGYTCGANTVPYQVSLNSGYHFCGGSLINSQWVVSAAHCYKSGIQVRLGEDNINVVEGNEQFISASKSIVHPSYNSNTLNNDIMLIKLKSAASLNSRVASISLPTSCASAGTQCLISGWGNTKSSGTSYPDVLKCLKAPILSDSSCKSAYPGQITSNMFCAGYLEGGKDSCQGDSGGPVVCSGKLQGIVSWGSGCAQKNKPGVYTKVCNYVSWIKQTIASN
Description: (§1) The human growth hormone/alpha-1 antitrypsin fusion [T109wt: α1AT/hGH] prepared in Example 1 and the human growth hormone/alpha-1 antitrypsin monovariant fusion [T109: α1AT(P357N)/hGH] prepared in Example 1 were separately mixed with trypsin. Trypsin and the fusions were used at a concentration of 10 nM, respectively. After being incubated at room temperature for 1 hr, the mixture was reacted with 0.2 mM of the substrate N-Benzoyl-Val-Gly-Arg p-nitroanilide hydrochloride (Sigma, U.S.A.), followed by measuring absorbance at 405 nm. Trypsin unit was set to be the concentration of substrate causing a change in absorbance of 0.001 and the enzyme activity was expressed as units/mg trypsin. For comparison, trypsin was used as a control.

[2] = biological target: T2, human neutrophil elastase (Homo sapiens, UniProt P08246); assay: Inhibitory activity against human neutrophil elastase; assay type: biochemical; settings: elastase and fusion 40 nM each, 1 hr room temperature
T2 sequence (P08246 30-267): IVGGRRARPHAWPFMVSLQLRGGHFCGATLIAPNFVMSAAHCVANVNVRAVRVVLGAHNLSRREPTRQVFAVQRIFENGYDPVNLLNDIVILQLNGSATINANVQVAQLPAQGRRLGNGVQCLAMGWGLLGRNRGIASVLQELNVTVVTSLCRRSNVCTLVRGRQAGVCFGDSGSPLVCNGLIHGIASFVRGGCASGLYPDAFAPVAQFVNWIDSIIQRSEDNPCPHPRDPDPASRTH
Description: as §1, with “with human neutrophil elastase. The elastase” for “with trypsin. Trypsin”, “of 40” for “of 10”, “with 1” for “with 0.2”, “substrate MeOSuc-AAPV-pNA (Santa Cruz Biotechnology, Inc.,” for “substrate N-Benzoyl-Val-Gly-Arg p-nitroanilide hydrochloride (Sigma,”, “nm. Human neutrophil elastase” for “nm. Trypsin”, “units/mg elastase.” for “units/mg trypsin. For comparison, trypsin was used as a control.”

[3] = test system: rat lymphoma cell line (NB2 cell); assay: In vitro activity in NB2 cells (MTS method); assay type: cell-based; settings: 48 hrs
Description: The rat lymphoma cell line (NB2 cell) was maintained in RPMI1640 supplemented with 10% HS (Horse serum), 10% FBS, 2-mercaptoethanol and antibiotics at 37° C. under a 5% CO2 condition. For 24 hrs before experiment, NB2 cells were incubated in RPMI 1640 supplemented with 10% HS. Thereafter, the NB2 cells were washed once with 1×DPBS (Dulbecco's Phosphate Buffered Saline), and plated at a density of 2×10^4 cells/100 μL/well in 5% HS-supplemented RPMI 1640 in 96-well plates (Corning, U.S.A.) with final volume of 100 μL. A series of concentrations of the samples were added in an amount of 20 μL to each well of the 96-well plates, followed by incubation at 37° C. for 48 hrs under a 5% CO2 condition. Subsequently, 20 μL of an MTS solution (Promega, U.S.A.) was added to each well of the 96-well plates and allowed to react at 37° C. for 3 hrs under a 5% CO2 condition. The reaction was terminated by adding 20 μL of 10% SDS (sodium dodecyl sulfate) to each well. Absorbance was measured at 490 nm using a VersaMax microplate reader (Molecular Device, U.S.A.).

[4] = Pharmacokinetics of hGH and hGH/alpha-1 antitrypsin fusions (serum ELISA); assay type: in vivo; settings: Sprague-Dawley rats, subcutaneous, 720 μg/kg
Description: An anti-human growth hormone monoclonal antibody (Medix Biochemica, Finland) was diluted to a concentration of 1-5 μg/mL in phosphate buffered saline (PBS) and the dilution was aliquoted in an amount of 100 μL/well onto a 96-well plate (Nunc, Denmark) and incubated at room temperature for 15-18 hrs. After the antibody remaining suspended was removed, PBS containing 1% bovine serum albumin was plated in an amount of 250 μL/well and incubated at room temperature for 2 hours. The plates were washed three times with wash buffer (0.05% Tween 20, PBS) and the solution was aspirated. Samples were diluted in PBS containing 1% bovine serum albumin and added to the 96-well plates before incubation at room temperature for 2 hrs. The 96-well plates were washed five times with wash buffer and 100 μL of the human growth hormone monoclonal antibody-biotin conjugate prepared using sulfo-NHS-biotin (Pierce biotechnology, U.S.A.) was added to each well of the 96-well plates and then incubated at room temperature for 2 hrs. The plates were washed five times with wash buffer and incubated with streptabidin-HRP at room temperature for 30 min. Again, the plates were washed five times with wash buffer and reacted with 100 μL of a mixture of TMB (3,3′,5,5′-tetramethylbenzidine) and hydrogen peroxide per well for 30 min in a dark place. To each well was added 100 μL of 1 M sulfuric acid to terminate the reaction, followed by measuring absorbance at 450 nm on a VersaMax microplate reader (Molecular Device, U.S.A.). Values for each sample were calculated by regression analysis after a standard curve was plotted for a reference material.
Sprague-Dawley rats were used as experimental animals and three of them were administered with human growth hormone while five rats were assigned to each of the fusion-administered groups. The human growth hormone/alpha-1 antitrypsin fusion [T109wt: α1AT/hGH], the human growth hormone/alpha-1 antitrypsin monovariant fusion [T109: α1AT(P357N)/hGH], and the human growth hormone/alpha-1 antitrypsin divariant fusion [T109T: α1AT(P357N, S359T)/hGH], all prepared in Examples 1-3, were subcutaneously injected at a dose of 720 μg/kg into respective groups of Sprague-Dawley rats. The samples were diluted in PBS before injection. Blood samples were taken at 0, 1, 2, 4, 8, 12, 16, 24, 30 and 48 hrs after the injection, and centrifuged to obtain sera. For a control, Scitropin (SciGen, Singapore), a kind of human growth hormone, was subcutaneously injected at a dose of 200 μg/kg. PBS was used as a diluent. Blood samples were taken at 0, 0.33, 1, 2, 5, 8, 12, 18, 24, 30 and 48 hrs after the injection, and centrifuged to obtain sera. Each sample was analyzed in the same manner as the enzyme immunoassay of Test Example 1.

Ka (association equilibrium constant) with trypsin [1]: about 7.5×10^8 M^−1
inhibition of human neutrophil elastase [2]: ~100%
pEC50 [3]: 9.67
Substance: human growth hormone/alpha-1 antitrypsin fusion [T109wt]
serum half-life (t1/2) [4]: 5.3 h
time to peak serum concentration (Tmax) [4]: 8 h

Reference: patent publication US9012606B2, “In vivo half life increased fusion protein or peptide maintained by sustained in vivo release, and method for increasng in vivo half-life using same” (Alteogen, Inc., priority 2009, dated 2015)
